Experimental data: US20210221867A1 (Novo Nordisk, published 2021)
Positions of bridges follow the written chain, without caps; N, C: chain ends. Non-standard residues stand in square brackets, D forms with d. dPhe(4-Cl) = N[C@H](Cc1ccc(Cl)cc1)C(=O)O; dPhe(4-Me) = Cc1ccc(C[C@@H](N)C(=O)O)cc1; dPhe(4-F) = N[C@H](Cc1ccc(F)cc1)C(=O)O; Nle = CCCC[C@H](N)C(=O)O; Thz = O=C(O)[C@@H]1CSCN1; Aib = CC(C)(N)C(=O)O

Experiments:
human MC4 receptor [1] = target: T1, human MC4 receptor (human, UniProt P32245 1-332); test: SPA competition binding, displacement of 125I-NDP-α-MSH, BHK membranes with human MC4R
T1 construct: whole, on cells; cAMP assay used whole BHK cells; also called melanocortin 4 receptor
T1 sequence (P32245 whole entry): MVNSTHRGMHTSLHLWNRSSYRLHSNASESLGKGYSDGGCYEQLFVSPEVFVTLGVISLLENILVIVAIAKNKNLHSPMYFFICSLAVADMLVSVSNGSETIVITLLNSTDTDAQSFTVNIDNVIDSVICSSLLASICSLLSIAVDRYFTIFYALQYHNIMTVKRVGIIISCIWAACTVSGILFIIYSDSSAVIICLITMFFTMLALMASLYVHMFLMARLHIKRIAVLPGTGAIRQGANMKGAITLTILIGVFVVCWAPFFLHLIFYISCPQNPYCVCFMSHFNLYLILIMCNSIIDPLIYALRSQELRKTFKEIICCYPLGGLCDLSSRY
Method: (§1) The SPA Binding assay was performed in 96-well white opaque plates. Each well contained: 0.5 mg PVT-WGA SPA beads, MC4 receptor expressing membrane diluted to give approximately 10% specific tracer binding, 50.000 dpm ¹²⁵I-NDP-α-MSH and relevant dilutions of test compound. The final volume in each well was 200 μl. […] Plates were incubated overnight (22-24 hours) at room temperature before counting for 2 minutes per well, using a TopCount NXT scintillation counter. Displacement of radio ligand is measured as reduction in light emission from SPA beads, and IC₅₀ values are calculated by nonlinear regression analysis of sigmoidal dose-response curves in GraphPad Prism (GraphPad Software, La Jolla, Calif., USA).

human MC1 receptor [2] = target: T2, human MC1 receptor (human, UniProt Q01726 1-317); test: SPA competition binding, displacement of 125I-NDP-α-MSH, BHK membranes with human MC1R
T2 construct: whole, on cells; cAMP assay used whole BHK cells; also called melanocortin 1 receptor
T2 sequence (Q01726 whole entry): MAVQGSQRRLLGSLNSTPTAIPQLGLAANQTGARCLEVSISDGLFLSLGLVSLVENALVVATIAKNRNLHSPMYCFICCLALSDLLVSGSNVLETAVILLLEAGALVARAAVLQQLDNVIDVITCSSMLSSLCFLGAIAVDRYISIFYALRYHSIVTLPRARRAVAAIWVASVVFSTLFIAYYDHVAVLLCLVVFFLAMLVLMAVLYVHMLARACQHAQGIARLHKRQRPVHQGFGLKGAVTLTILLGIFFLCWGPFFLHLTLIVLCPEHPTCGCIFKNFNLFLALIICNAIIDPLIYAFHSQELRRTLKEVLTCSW
Method: as §1, with “MC1” for “MC4”

human MC4 receptor [3] = target: T1, human MC4 receptor; test: cell-based or functional assay
human MC1 receptor [4] = target: T2, human MC1 receptor; test: cell-based or functional assay

Row | IC50 (human MC4 receptor [1]) | IC50 (human MC1 receptor [2]) | MC4R cAMP EC50 (human MC4 receptor [3]) | MC1R cAMP EC50 (human MC1 receptor [4]) | Binder
1 | 0.45 nM | 235 nM | 0.24 nM | 801 nM | Ac-C[Thz]H[dF]HWCPP[dR]E[Nle][dR][dR]-NH2 (disulfide 1-7; SMILES CCCC[C@H](NC(=O)[C@H](CCC(=O)O)NC(=O)[C@@H](CCCNC(=N)N)NC(=O)[C@@H]1CCCN1C(=O)[C@@H]1CCCN1C(=O)[C@@H]1CSSC[C@H](NC(C)=O)C(=O)N2CSC[C@H]2C(=O)N[C@@H](Cc2c[nH]cn2)C(=O)N[C@H](Cc2ccccc2)C(=O)N[C@@H](Cc2c[nH]cn2)C(=O)N[C@@H](Cc2c[nH]c3ccccc23)C(=O)N1)C(=O)N[C@H](CCCNC(=N)N)C(=O)N[C@H](CCCNC(=N)N)C(N)=O, Synthetic cyclic peptide; also called Chem. 12) [Ac-c[Cys-THAZ-His-D-Phe-His-Trp-Cys]-Pro-Pro-D-Arg-Glu-Nle-D-Arg-D-Arg-NH2]
2 | 0.88 nM | 290 nM | 2.15 nM | 601 nM | Ac-CPH[dPhe(4-Me)]HWCPP[dR]E[Nle][dR][dR]-NH2 (disulfide 1-7; SMILES CCCC[C@H](NC(=O)[C@H](CCC(=O)O)NC(=O)[C@@H](CCCNC(=N)N)NC(=O)[C@@H]1CCCN1C(=O)[C@@H]1CCCN1C(=O)[C@@H]1CSSC[C@H](NC(C)=O)C(=O)N2CCC[C@H]2C(=O)N[C@@H](Cc2c[nH]cn2)C(=O)N[C@H](Cc2ccc(C)cc2)C(=O)N[C@@H](Cc2c[nH]cn2)C(=O)N[C@@H](Cc2c[nH]c3ccccc23)C(=O)N1)C(=O)N[C@H](CCCNC(=N)N)C(=O)N[C@H](CCCNC(=N)N)C(N)=O, Synthetic cyclic peptide; also called Chem. 9) [Ac-c[Cys-Pro-His-D-MePhe-His-Trp-Cys]-Pro-Pro-D-Arg-Glu-Nle-D-Arg-D-Arg-NH2]
3 | 0.46 nM | 262 nM | 0.25 nM | 888 nM | Ac-C[Thz]H[dPhe(4-F)]HWCPP[dR]E[Nle]RR-NH2 (disulfide 1-7; SMILES CCCC[C@H](NC(=O)[C@H](CCC(=O)O)NC(=O)[C@@H](CCCNC(=N)N)NC(=O)[C@@H]1CCCN1C(=O)[C@@H]1CCCN1C(=O)[C@@H]1CSSC[C@H](NC(C)=O)C(=O)N2CSC[C@H]2C(=O)N[C@@H](Cc2c[nH]cn2)C(=O)N[C@H](Cc2ccc(F)cc2)C(=O)N[C@@H](Cc2c[nH]cn2)C(=O)N[C@@H](Cc2c[nH]c3ccccc23)C(=O)N1)C(=O)N[C@@H](CCCNC(=N)N)C(=O)N[C@@H](CCCNC(=N)N)C(N)=O, Synthetic cyclic peptide; also called Chem. 17) [Ac-c[Cys-THAZ-His-D-F-Phe-His-Trp-Cys]-Pro-Pro-D-Arg-Glu-Nle-Arg-Arg-NH2]
4 | 6.31 nM | 816 nM | 2.72 nM | 649 nM | Ac-[dR]CPH[dF]HWCPP[dR]E[Nle]-NH2 (disulfide 2-8; SMILES CCCC[C@H](NC(=O)[C@H](CCC(=O)O)NC(=O)[C@@H](CCCNC(=N)N)NC(=O)[C@@H]1CCCN1C(=O)[C@@H]1CCCN1C(=O)[C@@H]1CSSC[C@H](NC(=O)[C@@H](CCCNC(=N)N)NC(C)=O)C(=O)N2CCC[C@H]2C(=O)N[C@@H](Cc2c[nH]cn2)C(=O)N[C@H](Cc2ccccc2)C(=O)N[C@@H](Cc2c[nH]cn2)C(=O)N[C@@H](Cc2c[nH]c3ccccc23)C(=O)N1)C(N)=O, Synthetic cyclic peptide; also called Chem. 7) [Ac-D-Arg-c[Cys-Pro-His-D-Phe-His-Trp-Cys]-Pro-Pro-D-Arg-Glu-Nle-NH2]
5 | 0.58 nM | 394 nM | 0.53 nM | 1070 nM | Ac-CPH[dF]HWCPP[dR]E[Nle][dR][dR]-NH2 (disulfide 1-7; SMILES CCCC[C@H](NC(=O)[C@H](CCC(=O)O)NC(=O)[C@@H](CCCNC(=N)N)NC(=O)[C@@H]1CCCN1C(=O)[C@@H]1CCCN1C(=O)[C@@H]1CSSC[C@H](NC(C)=O)C(=O)N2CCC[C@H]2C(=O)N[C@@H](Cc2c[nH]cn2)C(=O)N[C@H](Cc2ccccc2)C(=O)N[C@@H](Cc2c[nH]cn2)C(=O)N[C@@H](Cc2c[nH]c3ccccc23)C(=O)N1)C(=O)N[C@H](CCCNC(=N)N)C(=O)N[C@H](CCCNC(=N)N)C(N)=O, Synthetic cyclic peptide; also called Chem. 4) [Ac-c[Cys-Pro-His-D-Phe-His-Trp-Cys]-Pro-Pro-D-Arg-Glu-Nle-D-Arg-D-Arg-NH2]
6 | 1.47 nM | 374 nM | 1.51 nM |  | Ac-RCPH[dF]HWCPP[dR]E[Nle]-NH2 (disulfide 2-8; SMILES CCCC[C@H](NC(=O)[C@H](CCC(=O)O)NC(=O)[C@@H](CCCNC(=N)N)NC(=O)[C@@H]1CCCN1C(=O)[C@@H]1CCCN1C(=O)[C@@H]1CSSC[C@H](NC(=O)[C@H](CCCNC(=N)N)NC(C)=O)C(=O)N2CCC[C@H]2C(=O)N[C@@H](Cc2c[nH]cn2)C(=O)N[C@H](Cc2ccccc2)C(=O)N[C@@H](Cc2c[nH]cn2)C(=O)N[C@@H](Cc2c[nH]c3ccccc23)C(=O)N1)C(N)=O, Synthetic cyclic peptide; also called Chem. 1) [Ac-Arg-c[Cys-Pro-His-D-Phe-His-Trp-Cys]-Pro-Pro-D-Arg-Glu-Nle-NH2]
7 | 0.44 nM | 214 nM | 0.33 nM | 456 nM | Ac-C[Aib]H[dF]HWCPP[dR]E[Nle][dR][dR]-NH2 (disulfide 1-7; SMILES CCCC[C@H](NC(=O)[C@H](CCC(=O)O)NC(=O)[C@@H](CCCNC(=N)N)NC(=O)[C@@H]1CCCN1C(=O)[C@@H]1CCCN1C(=O)[C@@H]1CSSC[C@H](NC(C)=O)C(=O)NC(C)(C)C(=O)N[C@@H](Cc2c[nH]cn2)C(=O)N[C@H](Cc2ccccc2)C(=O)N[C@@H](Cc2c[nH]cn2)C(=O)N[C@@H](Cc2c[nH]c3ccccc23)C(=O)N1)C(=O)N[C@H](CCCNC(=N)N)C(=O)N[C@H](CCCNC(=N)N)C(N)=O, Synthetic cyclic peptide; also called Chem. 13) [Ac-c[Cys-Aib-His-D-Phe-His-Trp-Cys]-Pro-Pro-D-Arg-Glu-Nle-D-Arg-D-Arg-NH2]
8 | 0.71 nM | 144 nM | 1.17 nM | 288 nM | Ac-RCPH[dF]HWCPP[dR]E[Nle]K-NH2 (disulfide 2-8; SMILES CCCC[C@H](NC(=O)[C@H](CCC(=O)O)NC(=O)[C@@H](CCCNC(=N)N)NC(=O)[C@@H]1CCCN1C(=O)[C@@H]1CCCN1C(=O)[C@@H]1CSSC[C@H](NC(=O)[C@H](CCCNC(=N)N)NC(C)=O)C(=O)N2CCC[C@H]2C(=O)N[C@@H](Cc2c[nH]cn2)C(=O)N[C@H](Cc2ccccc2)C(=O)N[C@@H](Cc2c[nH]cn2)C(=O)N[C@@H](Cc2c[nH]c3ccccc23)C(=O)N1)C(=O)N[C@@H](CCCCN)C(N)=O, Synthetic cyclic peptide; also called Chem. 2) [Ac-Arg-c[Cys-Pro-His-D-Phe-His-Trp-Cys]-Pro-Pro-D-Arg-Glu-Nle-Lys-NH2]
9 | 0.68 nM | 128 nM | 0.6 nM | 270 nM | Ac-RCPH[dF]HWCPP[dR]E[Nle]R-NH2 (disulfide 2-8; SMILES CCCC[C@H](NC(=O)[C@H](CCC(=O)O)NC(=O)[C@@H](CCCNC(=N)N)NC(=O)[C@@H]1CCCN1C(=O)[C@@H]1CCCN1C(=O)[C@@H]1CSSC[C@H](NC(=O)[C@H](CCCNC(=N)N)NC(C)=O)C(=O)N2CCC[C@H]2C(=O)N[C@@H](Cc2c[nH]cn2)C(=O)N[C@H](Cc2ccccc2)C(=O)N[C@@H](Cc2c[nH]cn2)C(=O)N[C@@H](Cc2c[nH]c3ccccc23)C(=O)N1)C(=O)N[C@@H](CCCNC(=N)N)C(N)=O, Synthetic cyclic peptide; also called Chem. 8) [Ac-Arg-c[Cys-Pro-His-D-Phe-His-Trp-Cys]-Pro-Pro-D-Arg-Glu-Nle-Arg-NH2]
10 | 0.28 nM | 172 nM | 0.43 nM |  | Ac-CPH[dPhe(4-Cl)]HWCPP[dR]E[Nle][dR][dR]-NH2 (disulfide 1-7; SMILES CCCC[C@H](NC(=O)[C@H](CCC(=O)O)NC(=O)[C@@H](CCCNC(=N)N)NC(=O)[C@@H]1CCCN1C(=O)[C@@H]1CCCN1C(=O)[C@@H]1CSSC[C@H](NC(C)=O)C(=O)N2CCC[C@H]2C(=O)N[C@@H](Cc2c[nH]cn2)C(=O)N[C@H](Cc2ccc(Cl)cc2)C(=O)N[C@@H](Cc2c[nH]cn2)C(=O)N[C@@H](Cc2c[nH]c3ccccc23)C(=O)N1)C(=O)N[C@H](CCCNC(=N)N)C(=O)N[C@H](CCCNC(=N)N)C(N)=O, Synthetic cyclic peptide; also called Chem. 10) [Ac-c[Cys-Pro-His-D-Cl-Phe-His-Trp-Cys]-Pro-Pro-D-Arg-Glu-Nle-D-Arg-D-Arg-NH2]
11 | 0.86 nM | 443 nM | 1.39 nM | 1160 nM | Ac-CPH[dF]HWCPP[dR]E[Nle][dR]R-NH2 (disulfide 1-7; SMILES CCCC[C@H](NC(=O)[C@H](CCC(=O)O)NC(=O)[C@@H](CCCNC(=N)N)NC(=O)[C@@H]1CCCN1C(=O)[C@@H]1CCCN1C(=O)[C@@H]1CSSC[C@H](NC(C)=O)C(=O)N2CCC[C@H]2C(=O)N[C@@H](Cc2c[nH]cn2)C(=O)N[C@H](Cc2ccccc2)C(=O)N[C@@H](Cc2c[nH]cn2)C(=O)N[C@@H](Cc2c[nH]c3ccccc23)C(=O)N1)C(=O)N[C@H](CCCNC(=N)N)C(=O)N[C@@H](CCCNC(=N)N)C(N)=O, Synthetic cyclic peptide; also called Chem. 14) [Ac-c[Cys-Pro-His-D-Phe-His-Trp-Cys]-Pro-Pro-D-Arg-Glu-Nle-D-Arg-Arg-NH2]
12 | 1.03 nM | 511 nM | 1.4 nM | 778 nM | Ac-CPH[dF]HWCPP[dR]E[Nle]RR-NH2 (disulfide 1-7; SMILES CCCC[C@H](NC(=O)[C@H](CCC(=O)O)NC(=O)[C@@H](CCCNC(=N)N)NC(=O)[C@@H]1CCCN1C(=O)[C@@H]1CCCN1C(=O)[C@@H]1CSSC[C@H](NC(C)=O)C(=O)N2CCC[C@H]2C(=O)N[C@@H](Cc2c[nH]cn2)C(=O)N[C@H](Cc2ccccc2)C(=O)N[C@@H](Cc2c[nH]cn2)C(=O)N[C@@H](Cc2c[nH]c3ccccc23)C(=O)N1)C(=O)N[C@@H](CCCNC(=N)N)C(=O)N[C@@H](CCCNC(=N)N)C(N)=O, Synthetic cyclic peptide; also called Chem. 3) [Ac-c[Cys-Pro-His-D-Phe-His-Trp-Cys]-Pro-Pro-D-Arg-Glu-Nle-Arg-Arg-NH2]
